Data from patent US20220282255A1.

Biological target: Recombinant Human TGF-β1, manufactured by Peprotech (human) (UniProt P01137)
Assay: cell-based or functional assay

Chain of Recombinant Human TGF-β1, manufactured by Peprotech (human) (P01137 279-390 limits assumed): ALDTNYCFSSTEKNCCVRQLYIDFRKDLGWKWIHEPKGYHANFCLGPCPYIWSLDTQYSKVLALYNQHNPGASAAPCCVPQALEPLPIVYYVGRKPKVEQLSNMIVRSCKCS

cell (luciferase assay inhibitory rate (%)): 100%
Substance: known TGF-β antibody (R&D, MAB1835)
